Source: patent US5792629A, “Isolated DNA encoding novel protease inhibitory polypeptide” (Mochida Pharmaceutical Co., Ltd., priority 1990, dated 1998)
Residue numbers refer to the chain shown, from its start. Names and notes keep the numbering of the source.

Legend:
plasmin = plasmin (Homo sapiens, UniProt P00747); details: literature report; cited from earlier work
trypsin = details: literature report; cited from earlier work
kallikrein = details: literature report; cited from earlier work
Human trypsin = biological target: T1, Human trypsin (Homo sapiens, UniProt P07477); test: Human trypsin-inhibiting activity, substrate S-2444; type: biochemical; details: purified products, concentration as U/ml bovine trypsin-inhibiting activity based on UTI
T1 construct: purchased Calbiochem
Protocol: The purified sample obtained in Example 1-(5) was dissolved in 100 μl of distilled water. Concentration of this solution was determined based on its bovine trypsin-inhibiting activity using the aforementioned UTI as a standard. The solution was then diluted to various concentration levels with 0.1% BSA/0.2M triethanolamine-HCl buffer (pH 7.8) for the activity measurement. The aforementioned UTI was also diluted in the same manner.
Using the aforementioned synthetic compound S-2444 as a substrate, human trypsin-inhibiting activities of the diluted test samples and the positive control were measured in accordance with the method of Kassell (Kassell B., Methods in Enzymol., vol 19, pp.84-852, 1970) as follows.
Human trypsin (Calbiochem) was dissolved in 0.001M HCl to a concentration of 1,000 SU/ml and the solution was further diluted with 0.1% BSA/0.2M triethanolamine-HCl buffer (pH 7.8) to prepare 1.25 SU/ml of trypsin solution. 2 mM solution of S-2444 was prepared by dissolving it in distilled water.
Next, 100 μl of the test sample or positive control was mixed with 100 μl of the trypsin solution. After incubation at 37° C. for 10 minutes, 50 μl of the S-2444 solution was added to the mixture to start the reaction. The reaction was carried out at 37° C. for 20 minutes and then stopped by adding 50 μl of 50% acetic acid solution to the reaction mixture. Thereafter, absorbance at 405 nm was measured using a spectrophotometer.
In this instance, in order to eliminate absorbance of various solutions in the reaction mixture, a blank solution was prepared by mixing 100 μl of the trypsin solution with 50 μl of 50% acetic acid and then with 100 μl of each test sample or the positive control and with 50 μl of the S-2444 solution.
In this figure, human trypsin remaining activity was expressed by percentage based on the absorbance of a control reaction mixture in which 100 μl of 0.1% BSA/0.2M triethanolamine-HCl buffer (pH 7.8) was used instead of the test sample or the positive control.

FXa = FXa (Homo sapiens, UniProt P00742); test: Human FXa-inhibiting activity, substrate S-2222; type: biochemical; parameters: purchased American Diagnostica Inc; details: purified products, FIG. 25 and FIG. 26
Protocol: The purified sample obtained in Example 1-(5) was dissolved in 100 μl of distilled water. Concentration of this solution was determined based on its bovine trypsin-inhibiting activity using the aforementioned UTI as a standard. The solution was then diluted to various concentration levels with 0.1% BSA/150 mM NaCl/5 mM CaCl2 /50 mM Tris-HCl buffer (pH 8.3) for use in the activity measurement. The UTI was also diluted in the same manner. Using a synthetic compound S-2222 (Daiichi Pure Chemicals Co., Ltd.) as a substrate, human FXa-inhibiting activities of the diluted test samples and the positive control were measured in accordance with the method of Ohno et al. (Ohno,H. et al., Thromb. Res., vol.19, pp.579-588, 1980) as follows.
Human FXa (American Diagnostica Inc.) was dissolved in distilled water to a concentration of 10 PEU/ml and the solution was further diluted with 0.1% BSA/150 mM NaCl/5 mM CaCl2 /50 mM Tris-HCl buffer (pH 8.3) to prepare 0.1 PEU/ml of FXa solution. 4 mM solution of S-2222 was prepared by dissolving it in distilled water and the solution was further diluted with 0.1% BSA/150 mM NaCl/5 MM CaCl2 /50 mM Tris-HCl buffer (pH 8.3) to obtain 2 mM solution of S-2222.
Next, 25 μl of the test sample or positive control was mixed with 100 μl of 0.1% BSA/150 mM NaCl/5 mM CaCl2 /50 mM Tris-HCl buffer (pH 8.3) and 25 μl of the FXa solution. After incubation at 37° C. for 10 minutes, 100 μl of the S-2222 solution was added to the mixture to start the reaction. The reaction was carried out at 37° C. for 30 minutes and then stopped by adding 50 μl of 50% acetic acid solution to the reaction mixture. Thereafter, absorbance at 405 nm was measured using a spectrophotometer.
In this instance, in order to eliminate absorbance of various solutions in the reaction mixture, a blank solution was prepared by mixing 25 μl of the FXa solution with 50 μl of 50% acetic acid and then with 25 μl of each test sample or the positive control, 100 μl of 0.1% BSA/150 mM NaCl/5 mM CaCl2 /50 mM Tris-HCl buffer (pH 8.3) and with 100 μl of the S-2222 solution.
In this figure, human FXa remaining activity was expressed by percentage based on the absorbance of a control reaction mixture in which 25 μl of 0.1% BSA/150 mM NaCl/5 mM CaCl2 /50 mM Tris-HCl buffer (pH 8.3) was used instead of the test sample or the positive control.

Sequence of FXa (P00742 235-488 limits assumed): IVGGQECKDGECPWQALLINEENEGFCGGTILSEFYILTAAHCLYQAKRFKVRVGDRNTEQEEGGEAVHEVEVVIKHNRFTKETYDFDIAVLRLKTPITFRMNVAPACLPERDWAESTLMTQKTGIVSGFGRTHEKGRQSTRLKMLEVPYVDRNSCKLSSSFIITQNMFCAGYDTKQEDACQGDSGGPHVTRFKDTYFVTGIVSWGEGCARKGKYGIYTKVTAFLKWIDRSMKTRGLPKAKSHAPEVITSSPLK
Sequence of FXa (P00742 41-179 partner limits assumed): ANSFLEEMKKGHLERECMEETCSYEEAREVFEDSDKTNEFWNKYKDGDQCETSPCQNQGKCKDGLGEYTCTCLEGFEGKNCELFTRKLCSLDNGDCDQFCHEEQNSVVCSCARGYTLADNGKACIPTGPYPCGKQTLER
Sequence of plasmin (P00747 581-810 limits assumed, species assumed): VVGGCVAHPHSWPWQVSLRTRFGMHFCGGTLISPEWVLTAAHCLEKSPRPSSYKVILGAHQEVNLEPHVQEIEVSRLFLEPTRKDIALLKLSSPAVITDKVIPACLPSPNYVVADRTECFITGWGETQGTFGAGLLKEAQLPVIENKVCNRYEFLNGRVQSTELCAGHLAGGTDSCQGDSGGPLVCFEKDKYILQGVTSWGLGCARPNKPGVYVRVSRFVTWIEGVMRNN
Sequence of plasmin (P00747 97-580 partner limits assumed, species assumed): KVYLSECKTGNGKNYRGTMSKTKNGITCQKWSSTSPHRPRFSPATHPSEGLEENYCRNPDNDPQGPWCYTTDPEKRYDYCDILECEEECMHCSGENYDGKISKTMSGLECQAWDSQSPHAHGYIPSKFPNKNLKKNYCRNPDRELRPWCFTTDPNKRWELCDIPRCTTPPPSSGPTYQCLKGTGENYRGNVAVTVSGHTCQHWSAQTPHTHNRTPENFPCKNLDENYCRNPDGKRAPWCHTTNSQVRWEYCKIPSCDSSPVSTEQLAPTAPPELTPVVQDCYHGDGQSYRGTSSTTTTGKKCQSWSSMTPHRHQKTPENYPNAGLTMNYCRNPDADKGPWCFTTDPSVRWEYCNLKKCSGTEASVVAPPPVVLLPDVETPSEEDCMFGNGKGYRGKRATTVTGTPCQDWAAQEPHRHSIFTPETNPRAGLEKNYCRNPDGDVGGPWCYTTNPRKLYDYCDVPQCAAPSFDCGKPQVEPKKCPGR

Molecule: aprotinin [reference compound]
- inhibition of plasmin (plasmin): inhibits
- inhibition of trypsin (trypsin): inhibits
- inhibition of kallikrein (kallikrein): inhibits

B1: Y46E: polypeptide defined by the amino acid sequence of formula 5, purified from culture supernatant of E. coli JE5505 (pM575B) (protein)
chain: TVAACNLPIVRGPCRAFIQLWAFDAVKGKCVLFPYGGCQGNGNKFESEKECREYCGVPGDGDEELLRFSN
- human trypsin-inhibiting activity compared with polypeptides TN70 and TL66 (Human trypsin): almost the same
- human FXa-inhibiting activity relative to polypeptide TN70 (FXa): about 7 times

B2: Q19K: polypeptide defined by the amino acid sequence of formula 6, purified from culture supernatant of E. coli JE5505 (pM576) (protein)
chain: B1 chain with T1D, V2D, Q19K, E46Y
- human trypsin-inhibiting activity compared with polypeptides TN70 and TL66 (Human trypsin): almost the same
- human FXa-inhibiting activity relative to polypeptide TN70 (FXa): about 5 times
